From patent US20190160187A1 (CORNELL UNIVERSITY, published 2019) come the findings set out here.

The series deals with the molecule itself. The series is described as follows: Western blot, HEK 293T-orf6 cells (self-association into a homotetramer). Here is the method: To assess ALDH2 tetramer formation from AAVrh.10hALDH2 directed expression of the human ALDH2 protein in vitro, HEK 293T cells were infected with the AAVrh.10hALDH2 vector or a control AAVrh.10-hα1 AT vector, and supernatant was harvested 72 hours later. Human ALDH2 tetramer formation in supernatant was evaluated by SDS-PAGE and Western analysis with an anti-HA antibody.
Background: In western blotting, separated proteins are transferred to a membrane and probed.

B1: human ALDH2 with C-terminal hemagglutinin (HA) tag, expressed from the AAVrh.10hALDH2 vector (enzyme)
chain: SAAATQAVPAPNQQPEVFCNQIFINNEWHDAVSRKTFPTVNPSTGEVICQVAEGDKEDVDKAVKAARAAFQLGSPWRRMDASHRGRLLNRLADLIERDRTYLAALETLDNGKPYVISYLVDLDMVLKCLRYYAGWADKYHGKTIPIDGDFFSYTRHEPVGVCGQIIPWNFPLLMQAWKLGPALATGNVVVMKVAEQTPLTALYVANLIKEAGFPPGVVNIVPGFGPTAGAAIASHEDVDKVAFTGSTEIGRVIQVAAGSSNLKRVTLELGGKSPNIIMSDADMDWAVEQAHFALFFNQGQCCCAGSRTFVQEDIYDEFVERSVARAKSRVVGNPFDSKTEQGPQVDETQFKKILGYINTGKQEGAKLLCGGGIAADRGYFIQPTVFGDVQDGMTIAKEEIFGPVMQILKFKTIEEVVGRANNSTYGLAAAVFTKDLDKANYLSQALQAGTVWVNCYDVFGAQSPFGGYKMSGSGRELGEYGLQAYTEVKTVTVKVPQKNS
notes: also called human aldehyde dehydrogenase 2; hALDH2-HA; not shown: C-terminal hemagglutinin (HA) tag
As for B1, the binding result is “binds”.
